The record followed here is publication PMC6331642.

Data set [1] has as its target O00244. Nature of the data set: SEC-MALS; apo-Atox1 after reaction with TM, with 4.5 mM reducing agents. In general terms: In gel filtration, larger molecules generally elute earlier.
Data set [2] addresses O00244. Nature of the data set: SEC-MALS; Cu-Atox1 after reaction with TM, with 4.5 mM reducing agents.
The target of data set [3] is P35670. Nature of the data set: SEC-MALS; apo-WLN4 after incubation with TM; Superdex 75 10/300 GL, 50 mM MES pH 6.0, 150 mM NaCl, room temperature.
Data set [4] addresses P35670. Nature of the data set: SEC-MALS; Cu-WLN4 after incubation with TM; Superdex 75 10/300 GL, 50 mM MES pH 6.0, 150 mM NaCl, room temperature.

B1: Atox1 copper chaperone (protein)
chain: MPKHEFSVDMTCGGCAEAVSRVLNKLGGVKYDIDLPNKKVCIESEHSMDTLLATLKKTGKTVSYLGLE
Take B1: the “N with TM” value in the data set with O00244 [1] is “both apo-Atox1 and Cu-Atox1 generated dimeric adducts following reaction with TM”; in the data set with O00244 [2] it was “both apo-Atox1 and Cu-Atox1 generated dimeric adducts following reaction with TM”.

B2: WLN4, the fourth metal-binding domain of Wilson's disease protein (ATP7B) (protein)
chain: TCSTTLIAIAGMTCASCVHSIEGMISQLEGVQQISVSLAEGTATVLYNPSVISPEELRAAIEDMGFEASVVS
Consider B2, for which the N with TM with P35670 [3] and in the data set with P35670 [4] was 2 in each case.
